According to article PMC11428563:

Target: VEGF as named in the paper; reagent listed as Human VEGFR2 / KDR Protein, His Tag, Acrobiosystems KDR-H5227 (human) (UniProt P35968)
Experiment: BLI
Settings: BLI (Octet R4, anti-penta-His HIS1K sensors): protein loaded in phosphate buffer pH 7.4 (PlGF 2.5 ug/mL, VEGF 10 ug/mL), aptamers 0-20 uM in 1X Sartorius …

Chain of VEGF as named in the paper; reagent listed as Human VEGFR2 / KDR Protein, His Tag, Acrobiosystems KDR-H5227 (human) (P35968 20-764): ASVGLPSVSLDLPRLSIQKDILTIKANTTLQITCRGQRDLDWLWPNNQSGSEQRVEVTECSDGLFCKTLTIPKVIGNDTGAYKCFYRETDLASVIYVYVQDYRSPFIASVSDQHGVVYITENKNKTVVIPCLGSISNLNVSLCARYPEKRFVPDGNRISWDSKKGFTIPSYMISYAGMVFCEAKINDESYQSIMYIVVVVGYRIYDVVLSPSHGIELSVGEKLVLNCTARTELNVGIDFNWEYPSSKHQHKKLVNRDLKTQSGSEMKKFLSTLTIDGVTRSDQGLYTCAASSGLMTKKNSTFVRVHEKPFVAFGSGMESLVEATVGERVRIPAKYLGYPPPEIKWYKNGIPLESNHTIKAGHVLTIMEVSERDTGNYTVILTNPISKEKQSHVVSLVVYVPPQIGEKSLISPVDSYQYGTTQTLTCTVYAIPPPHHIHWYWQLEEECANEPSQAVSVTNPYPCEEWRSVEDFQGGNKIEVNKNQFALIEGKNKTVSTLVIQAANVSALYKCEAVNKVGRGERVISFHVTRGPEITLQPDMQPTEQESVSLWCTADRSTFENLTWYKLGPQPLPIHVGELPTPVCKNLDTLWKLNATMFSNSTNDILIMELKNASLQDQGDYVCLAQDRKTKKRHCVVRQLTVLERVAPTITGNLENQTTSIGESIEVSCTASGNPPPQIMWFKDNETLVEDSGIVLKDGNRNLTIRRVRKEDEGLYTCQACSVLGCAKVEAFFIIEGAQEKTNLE

Sequence	Kd	Kd (kon 9.164e1 1/Ms, koff 4.362e-7 1/s)
CGAAGGGAA [VEGF-Apt1]	320000 nM	–
CGAAAACAC [VEGF-Apt2]	0.467 nM	–
GAAAGGCGA [VEGF-Apt3]	–	6.8 nM
